According to the nanobody polyreactivity screen of Harvey et al. (2022):

Test: yeast display, Sf9 membrane polyspecificity reagent, FACS + sequencing; frameworks hold sequencing errors
Method in brief: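 A nanobody's polyreactivity label depends on the gate it was sorted from. Yeast display cells were stained with 10% biotinylated, detergent-solubilized Sf9 membrane reagent for 1 hour at 4 °C, enriched on streptavidin microbeads and sorted by FACS. The low and high (top ~1%) gates were set on anti-HA fluorescence for expression and streptavidin fluorescence for reagent binding.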

| Sequence | polyreactivity (PSR sort gate) |
| --- | --- |
| QVQLVETGGGLVQAGGSLRLSCAASGSTFPAYTMGWYRQAPGKERELVAAITTGGRTYYADSVKGRFTISRDNAKNTVYLQMNSLKPEDTAVYYCAAKRYCYRSLPYYGIHGWGQGTQVTVSS | high polyreactivity |
| QVQLVETGGGLVQAGGSLRLSCAASGSTFSDYVMGWYRQAPGKERELVAAITWSGGSTYYADSVKGRFTISRDNAKNTVYLQMNSLKPEDTAVYYCAADPTASGHFLGQVDYWGQGTQVTVSS | high polyreactivity |
| QVQLVETGGGLVQAGGSLRLSCAASGSTFWYYGMGWYRQAPGKERELVAAISRRGGSTYYADSVKGRFTFSRDNAKNTVYLQMNSLKPEDTAVYYCAADRLIGDGENYYWGQGTQVTVSS | high polyreactivity |
| QVQLVETGGGLVQAGGSLRLSCAASRSIFARNAMGWYRQAPGKERELVAAISWSGGRTYYADSVKGRFPISRVNAKNTVYLQMNSLKPEDTAVYYCATYTWWGQGTQVTVSS | high polyreactivity |
| QVQLVETGGGLVQAGGSLRLSCADYGYILWNAMGWYRQAPGTEMELVPAIRFRGGSTSYADSVKGRFTISRDNAQNTVYLQMKSLKPVYTAVYYCNARWWVIRPYERHDYWGQGTQVTVTS | low polyreactivity |
| QVQLVETGGGLVQAGGSLRLSCAPSGRTFGPYAMGWYRQAPGKERELVAAIRVRGASTYYADSVKVRFTISRDNEKNTVYLQMNSLKPEDTEVYYCAATLSYYVGVRYDYWGQGTQVTVSS | high polyreactivity |
| QVQLVETGGGLVQAGGSLRLSCAPSGRTLSYYAMGWYIQAPGKERELVAAIRHSAGSTYYADSVKVRFTISRDNAKNTVYLQMISLKPEDTAVYYCAKKYYGHRYPSIYDYWGQGTQVTVSS | high polyreactivity |
| QVQLVETGGGLVQAGGSLRLSSGASGFIFVRNAMGWYRQAPGKEREFVAAINSSGGRTYYADSVKGRFTISRDNANNTVNLQMNSLKPEDTAVYYCAARPQPKKFYYWGQGTQETVSS | high polyreactivity |
| QVQLVETGGGLVQAGGSLSLSCAASGRTSKINAMGWYRQAPGKERELVASISRTGGTTYYADSVKGRFTISRDNAKNTVYLQMNSVKPEDTAVYYCAVSDFGLRDSLTIYDEYDYWGQGTQVTVSS | high polyreactivity |
| QVQLVETGGGLVQAGGSLSLSCAASGSILDLNAMGWYRQAPGKERELVAAISSGGGTYYADSVKGRFTISRDNAKNTVYLQMNSLKPEDTAVYYCNRVTRWTYNYWGQGTQVTVSS | high polyreactivity |
| QVQLVETGGGLVQAGGSLSLSCAGSGHTFTNNAMGWYRQAPGKERELVAAITFSGGRTYYADSVKGRFTISRDNAKNTVYLQKNSLKPEDTAVYYCDAVNPGGSIYDYWGQGTQVTVSS | low polyreactivity |
| QVQLVETGGRLVQAGGSLRLSSAASGSIFYPYAMGWYRQAPGKEREWVATITISGGRTYYADSVKGRFTISRDNAKNTVYLQMNSLKPEDTAFYYCATEYAYGAFLYDYWGQGTQVTVSW | low polyreactivity |
| QVQLVETGGVLDQAGGSLRLSCAASGRIFWANAMGWYRQAPGKERELVAAISYSGVSTYYADSVKGRFTSSRDNAKNTVYLQMNSLKPEDTAVYYCAADRYRKYYYWGQGTQVTVSS | high polyreactivity |
| QVQLVETGRGLVQAGGSLRLSCAASGSTFWPNAMGWYRQAPGKDRELVAAITSGGGTKYADSVKGRFTISRDNAKNTVYLQMNSLKPEDTAVYYCAKRKGDRGAWNHAYGWEDVDYWGQGTQVTVSS | low polyreactivity |
| QVQLVETGRGLVQEGGSLRLICAASGRTFYIYAMGWYRQAPGKERDLVAAISWGSGSPYYADSVKGRFTISRDNAKNTVYLQINSLKPEDTAVYYFAAEYAFPSEWTYDYWGQVTQVTVSS | low polyreactivity |
| QVQLVETPGGLVQAGGSLRLSCAASGRIFAYNAMGWYRQEPGNERELVAAIDSGGDTNYADSVKGRFTISRDNAKNTVYLKMNSLKPEVTAVYYCWSRAAPPGWFYGTNDNYWGQGTQVTVSS | low polyreactivity |
| QVQLVETVRGLVQAGGSLRITCAASGRIYAYYSMGWYRQPPGKERELVAAITRSGGSTYYADSVKGRFTNSRDIAKYTVYIQMISLKPEDNAVYYCAPSLNVPYATMNYWGQGTQVTVSA | high polyreactivity |
| QVQLVEYGGGLVQAGGSLRLSCAASGRIFNYYAMGWYRQAPGKEREFVAAITRSGGRTYYADSVKGRFTISRDNAKNTVYLQMNILKPEDTAVYYCAAPYGTYAYDYSGQGTQVTVSS | high polyreactivity |
| QVQLVEYGGGLVQAGGSLRLSCADSGRIFDVYAMGWYRQAPGKERELVARISDGGGSTYYADSVKGRFTISRDNAKNTVYLKMNSLKPEDTAVYYCAAGGDLRLDRRFAFVSRGDYWGQGTQVTVSS | low polyreactivity |
| QVQLVKSGGGLVQAGGSLRLSCAASGSTFYNAMGWYRQAPGKERELVAAISIGGSTYYADSVKGRFTISRDNAKNTVYLQMNSLKPEDTAVYYCAAVWYTSRQKYDYWGHGTQVTVSS | low polyreactivity |
| QVQLVKSGGGLVQAGGSLRLSCAASGSTFYNAMGWYRQAPGKERELVAAISIGGSTYYADSVKGRFTISRDNAKNTVYLQMNSLKPEDTAVYYCAAVWYTSRQKYDYWGQGTQVTVSS | low polyreactivity |

| Sequence | polyreactivity (PSR sort gate) |
| --- | --- |
| QVQLVLLGGGLVQAGGTLRVSCAPSGSIIYWKDRGWYRQAPGKERELDASITASGSSTYYADSVKGRFTISRDNGKNTVYLQMNSLLPEDTAVYYCNTSVFTYYDSAYDYWGQGTQVTVSS | low polyreactivity |
| QVQLVQSGAGLVQAGGSLRLSCAPSGFIFRRYDMAWYRQAPGKERELVAAITSSGGTTYYADSVKGRFTNSRDNAKNTVYLQMNSLKPEDTAVYYCNAVRGVYARRSDYWGQGTQVTVSS | high polyreactivity |
| QVQLVQSGGGIVQAGGSLRLSCAAYGITFGRNNMGWDRQAPGKERELVAALDSGGNTYADSVKGRFTISRDNAKQTVYVQMNSLKPEDTAVYDCAVDGGEFSSYGYWGQGTQVTVSS | low polyreactivity |
| QVQLVQSGGGLFQAGGSLRLSCAASGRTFWSNAMGWYRQAPGKERELVADITFSGGRTYYADSVKGRFTISRDNAKTSVYLQMNRLKPEDTAVYYCSSSATPSGVGMDYWGQGTQVTVSS | low polyreactivity |
| QVQLVQSGGGLVHAGGSLRLSCAASGRISFYYAMGWYRQAPGKERELVAAISRGGSTYYPDSVKGRFTISRDNAKNTVFLQMNSLKPEDTAVYYCAATYSGVDTPSGYDYWGQGTQVTVSS | low polyreactivity |
| QVQLVQSGGGLVQAGGSLRLICAASGGTFSYNTMGWYRQAPGKVRELVAVITFSGGSTYYADCVKGRFTISRDNAKNTVYLQMNSLKQEDTAVYYCAADWLSKYDYWGQGTQVTVSS | low polyreactivity |
| QVQLVQSGGGLVQAGGSLRLSCAASGFTLRRNAMGWYRQAPGKERELVAAISSSGSTYYADSVKGRFTISRDNAKNTVYLQMNSLKPEDTAVYYCAASATYKVRGGYWGQGTQVTVSS | high polyreactivity |
| QVQLVQSGGGLVQAGGSLRLSCAASGRTFGRYAMGWYRQAPGKERELVAAINRGGSTKYADSVQGRFTISRDNAKNTVYLQMNSLKPEDTAVYYCAKDRHPALLYDYWGQGTEVTVSS | low polyreactivity |
| QVQLVQSGGGLVQAGGSLRLSSAASRSPLGYYALGWYRQAPGKERELVAAISGRGTSPYYADSVKGRFTISRDNAKNTVYVQMNSLKPEDTAVSYCAAQLFRELYWGQGTQVTVSS | high polyreactivity |
| QVQLVQSGGGLVQAGGSLSLSCAASGSIFNYNAMGWYRQAPGKERELVAAITSADGRTFYADSVKGRFTISRDNAKNTVYLQMNSLKPEDTAVYYCAAERTSRYSTYEYWGQGTQVTVSS | low polyreactivity |
| QVQLVQSGGGLVQAGGSLSLSCAASGSIFPGYTRGWYRQAPGKERELVAAISRRGGSTYYADSVKGRFTISRDNAKNPGYLQMNSLKPEDTAVYYCAKVPDYRFEYWGQGTQVTVSS | high polyreactivity |
| QVQLVQSVGGLVQAGGSLRLSCAATGRIFFSYAMGWYRQAPGKERELVAAISWDGGSTYYADSVKGRFTISRDNAKNTDYLQMTSLKPEDTAVSYCNADTHFPPSSSSYSPSLLDYWGQGTQVTVSS | low polyreactivity |
| QVQLVSSGGRLVQSGGSLRLSCAASGRTFYPYAMGWYRQAPGKERELVAGIRNSGTSTYYADSVKGRFTISRDNAKNTVYLQMNSLKPEVTAVYYCNARGYRNRGYGYDSWGQGTQVTVSS | high polyreactivity |
| QVQLVVSGGGLVQAGGSLRLICAASGFSFFFYALGWYSQAPGKDRELHATINWSGASTYYADSVMGRFTISRDNATNTVYLQMNSLKPEDTAVYYCAKDGHYPLVYLAFDYWGQGTQVTGSS | low polyreactivity |
| QVQLVVSGGGLVQAGGSLRLSCAASGFTFGYYAMGWYRQAPGKERELVAAITASGARTYYADSVKGRFTISRDNAKNTVYLQMNSLKPEDTAVYYCAAYTNAYRERWPDYGYWGQGTQVTVSS | high polyreactivity |
| QVQLVVSGGGLVQAGGSLRLSCAASGRTFYRYAMGWYRQAPGKEWELVAAISASGGITYYADSVKGRFTISRDNAKNTVYLQMNSLKPEDTAVYYCKAVWRKTEYDYWGQGTQVTVSS | high polyreactivity |
| QVQLVVSGGGLVQAGGSLRLSCAASGSIFPYYTMGWYRQAPGKEWELVAAISGSGTSTYYADSVKGRFTISRDNAKNTVYLQMNSLKPEDTAVYYCAKRFRYGYVNYYYWGQGTQVTVSS | low polyreactivity |
| QVQLVVSGGGLVQAGGSLRLSCATTGRIFHRSAMGWYRQAPGKERGLVAGISSSGGSTYADSVKGRFTISRDNAKNTVYLQMNSLKPEDTAVYYCAAKWRHSGGGMYYWGQGTQVTVSS | high polyreactivity |
| QVQLVVSGGGLVQQGGSLRLSCAASGTFRYYTMGWYRQAPGKERELVAAISRSGGRSYYADSVTGRCTISRDNAKNTVDLPMNSLKPEDTAVYYCAARYKLYYPDYYYWGQGTQVTVSS | high polyreactivity |
| QVQLVVSGGVLVQAGGSLRLSCAASGRTFASYTMGWYIQAAGKERELVAAISRGGNTYYADSVKGRFTISRDIAKNTVYLQMNSLKPDDTAVYYCAATAVKYDRRFYYWGQGTQVTVSS | high polyreactivity |
